± gives the uncertainty stated by the source.
Assay: protein stability index of a GFP-peptide fusion (yeast GPS) (PSI 1-4); higher = more stable; sorted into four equal gates, so the index is relative within each strain
Outline: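 Each library plasmid carries Cherry plus GFP with a tiled 17-residue yeast protein peptide fused downstream, and the pooled library was carried in yeast. Mid-log cultures in leucine-free medium were sorted into four equal gates by GFP/Cherry ratio. Reads from Illumina sequencing of PCR-amplified plasmids from each gate were assigned to strains by barcodes. Per peptide, the protein stability index was computed as the summed products of gate read frequency and gate number.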

| Sequence | protein stability index (doa10∆) | protein stability index (pdr5∆) | protein stability index (san1∆) | protein stability index (ubr1∆) |
| --- | --- | --- | --- | --- |
| KKENLTRDETVSLIKKY [YML103C/NUP188] | 2.82 ± 0.065 | 2.83 ± 0.1 | 2.55 ± 0.096 | 2.6 ± 0.078 |
| SVTETESISQTPISNEQ [SRP68] | 2.89 ± 0.099 | 3.01 ± 0.078 | 2.82 ± 0.063 | 2.96 ± 0.082 |
| KMYDYEEKEESNLAATK [RPN11] | 3.17 ± 0.074 | 3.06 ± 0.082 | 2.87 ± 0.056 | 2.96 ± 0.1 |
| KISNSEFFNPEIFHLLQ [SIN4] | 2.13 ± 0.079 | 1.74 ± 0.072 | 1.61 ± 0.087 | 2.16 ± 0.07 |
| KIESEDDYILSGESVMD [SRB4] | 3.4 ± 0.17 | 3.5 ± 0.1 | 3.38 ± 0.15 | 2.96 ± 0.075 |
| TVKLYLPEILNVLCVNI [ECM29] | 1.46 ± 0.047 | 1.49 ± 0.045 | 1.5 ± 0.074 | 1.42 ± 0.045 |
| AIIGLKSGTSHDAIFSI [SNF12] | 2.56 ± 0.11 | 2.65 ± 0.082 | 2.5 ± 0.069 | 2.96 ± 0.17 |
| IYSRDIGAELKREESES [SNF2] | 3.06 ± 0.087 | 3.19 ± 0.086 | 3.08 ± 0.066 | 3.01 ± 0.071 |
| NEGLVEYIDAEEEESIL [RPB2] | 3.36 ± 0.081 | 3.46 ± 0.085 | 3.24 ± 0.078 | 3.37 ± 0.087 |
| KAKSNQTQREKAPLQPN [IRR1] | 3.07 ± 0.058 | 3.24 ± 0.052 | 3.09 ± 0.035 | 3.07 ± 0.05 |
| MSDFVPIDAGLNEAPFP [MCD1] | 3 ± 0.07 | 2.56 ± 0.05 | 2.92 ± 0.051 | 2.97 ± 0.047 |
| LLERGRLRKRVTIIPLD [SMC2] | 2.25 ± 0.06 | 2.71 ± 0.059 | 2.26 ± 0.059 | 2.12 ± 0.057 |
| IPPDQQRLIFAGKQLED [RPS31] | 2.92 ± 0.077 | 2.73 ± 0.06 | 3.18 ± 0.038 | 3.16 ± 0.035 |
| DVQVDAEEKREAVIDEK [ITC1] | – | 2.32 ± 0.18 | – | 2.6 ± 0.13 |
| PQYNMNMGMNNMNNGGK [PGD1] | 3.42 ± 0.21 | 3.48 ± 0.19 | 3.16 ± 0.11 | 3.24 ± 0.083 |
| KLRARLVEYGFDPSRIK [SMC2] | 2.73 ± 0.06 | 2.62 ± 0.092 | 2.33 ± 0.08 | 2.01 ± 0.034 |
| GHLPEVSSKCNDIHLRF [ECM29] | 2.69 ± 0.11 | 2.92 ± 0.082 | – | 3.17 ± 0.17 |
| LPFYAILRSIPDKLLGV [COB] | 2.59 ± 0.041 | 2.07 ± 0.039 | 2.1 ± 0.055 | 1.99 ± 0.046 |
| VEYVDPTVNRVPNYEVS [RPN7] | 3.37 ± 0.26 | 3.2 ± 0.16 | 2.92 ± 0.25 | 3.8 ± 0.15 |
| KEEELIERDSLVDDENE [BRN1] | – | – | – | 3.25 ± 0.15 |
| EELLQLFLNNFVSRIPI [IRR1] | 3.12 ± 0.058 | 2.74 ± 0.055 | 2.75 ± 0.054 | 2.7 ± 0.041 |
| NTIRQNVTSSGDHNKLR [YML103C/NUP188] | 3.12 ± 0.17 | 3.04 ± 0.16 | 3.21 ± 0.075 | 2.98 ± 0.097 |
| GIDQYSFNVKENQPFHG [AAR2] | 2.65 ± 0.058 | 2.88 ± 0.058 | 2.82 ± 0.048 | 2.9 ± 0.051 |
| IPLDNYDDFIYLSDLKQ [PCI8] | 2.11 ± 0.12 | 2.04 ± 0.14 | 1.77 ± 0.25 | 2.62 ± 0.12 |
| WCAGAGTAADTEAVTQL [PUP1] | 3.16 ± 0.24 | 2.94 ± 0.23 | 2.78 ± 0.21 | – |
| KFFMKHGLILELQKIWQ [SRB5] | 2.94 ± 0.096 | 3.02 ± 0.089 | 3.32 ± 0.069 | 3.18 ± 0.037 |

| Sequence | protein stability index (doa10∆) | protein stability index (pdr5∆) | protein stability index (san1∆) | protein stability index (ubr1∆) |
| --- | --- | --- | --- | --- |
| VTMGAKDKLREFIPHST [RPN6] | 3.46 ± 0.11 | 3.1 ± 0.14 | 2.96 ± 0.099 | 3.04 ± 0.11 |
| TDLESKSRMINFLDAPG [SNU114] | 2.65 ± 0.078 | 2.95 ± 0.094 | 2.71 ± 0.067 | 2.8 ± 0.047 |
| KLHVNWNLNATKPNVLN [SIN4] | 2.94 ± 0.17 | 2.86 ± 0.11 | 2.85 ± 0.11 | 2.93 ± 0.098 |
| VNIHHLLNEYRPHQSRE [MED7] | 2.81 ± 0.084 | 2.4 ± 0.16 | 1.81 ± 0.2 | 2.25 ± 0.1 |
| ERDEQKRAEKKAKERLQ [SNF2] | 3.29 ± 0.12 | 3.45 ± 0.16 | 2.98 ± 0.13 | 3.4 ± 0.12 |
| QNGQQPPTTSNLIIFLY [YML103C/NUP188] | 2.83 ± 0.05 | 2.78 ± 0.04 | 2.94 ± 0.034 | 3.06 ± 0.035 |
| DVMDELITSSARKELPI [SIR3] | – | 2.26 ± 0.13 | 2.7 ± 0.27 | 2.42 ± 0.18 |
| KSRPDRPKPVSPPCYII [SNF5] | 2.93 ± 0.063 | 3.08 ± 0.057 | 2.98 ± 0.069 | 2.95 ± 0.041 |
| GRTGRAANEGTAVSFVS [PRP28] | 2.7 ± 0.26 | – | 2.81 ± 0.27 | 2.7 ± 0.26 |
| VDDSMELCGQIRSERFK [ITC1] | 2.84 ± 0.072 | 3 ± 0.067 | 3.28 ± 0.086 | 2.94 ± 0.13 |
| TSADLKSKAEELTQVPS [UBP6] | 3.16 ± 0.21 | 3.22 ± 0.12 | 2.79 ± 0.13 | 3.12 ± 0.18 |
| SVDPQSSSTQNVFVILM [DIS3] | 2.83 ± 0.16 | 2.43 ± 0.17 | 2.7 ± 0.075 | 2.92 ± 0.099 |
| EKADYEDEMMHEEDQKT [RPN12] | – | 2.97 ± 0.15 | – | 3.03 ± 0.17 |
| ASYVNIPVIALTDLDSP [RPS0A] | 1.92 ± 0.063 | 1.81 ± 0.064 | 1.61 ± 0.17 | 1.88 ± 0.046 |
| DKNSGVKSEVDVQVDAE [ITC1] | 2.1 ± 0.064 | 2.15 ± 0.073 | 1.79 ± 0.12 | 2.97 ± 0.065 |
| TATLAWGVNLPAHTVII [BRR2] | 1.26 ± 0.065 | 1.4 ± 0.067 | 1.81 ± 0.089 | 1.79 ± 0.064 |
| GTFKSTLDREYITLKAT [QCR2] | 1.39 ± 0.065 | 1.44 ± 0.044 | 1.51 ± 0.099 | 1.49 ± 0.047 |
| NTTTYKSRPDRPKPVSP [SNF5] | 3.09 ± 0.045 | 3.12 ± 0.05 | 3 ± 0.047 | 2.97 ± 0.042 |
| PVSLLNSQLVGKPHFSL [PCI8] | 2.1 ± 0.084 | 2.37 ± 0.074 | 1.88 ± 0.21 | 2.21 ± 0.052 |
| EELLAQYESQAPDGSAS [SWP82] | 3.02 ± 0.061 | 2.95 ± 0.084 | 3.13 ± 0.068 | 3.08 ± 0.046 |
| ALDTVTNVLNFIKLQKI [FAS1] | 2.76 ± 0.069 | 2.04 ± 0.067 | 2.14 ± 0.13 | 2.15 ± 0.055 |
| YDSRPLEEDSKKVNGTS [PRP8] | 2.99 ± 0.23 | 3.53 ± 0.17 | 3.21 ± 0.098 | 2.94 ± 0.11 |
| ILDGLTVRLVNLFSSTG [SRB2] | 3.1 ± 0.15 | 3.03 ± 0.16 | – | – |
| ADNNDLQESINHVMYTE [ECM29] | 2.66 ± 0.086 | 3.02 ± 0.096 | 3.05 ± 0.1 | 3.02 ± 0.054 |
| KDLKHIIYYKFNKNLGK [PRP8] | 1.14 ± 0.052 | 1.28 ± 0.053 | 1.32 ± 0.11 | 1.17 ± 0.061 |
